Results published in patent US12467929.

What was measured:
[1] = target: recombinant UBE3A protein (Homo sapiens (Human)) (UniProt Q05086); test: 2-step Simoa; capture GTX; UBE3A 0.1 ng/ml
[2] = target: recombinant UBE3A protein (Homo sapiens (Human)) (UniProt Q05086); test: 3-step Simoa; capture MS 3E5; UBE3A 1 ng/ml
[3] = target: recombinant UBE3A protein (Homo sapiens (Human)) (UniProt Q05086); test: 3-step Simoa; capture MS 3E5; UBE3A 10 ng/ml
[4] = target: recombinant UBE3A protein (Homo sapiens (Human)) (UniProt Q05086); test: 2-step Simoa; capture MS 3E5; UBE3A 10 ng/ml
[5] = target: recombinant UBE3A protein (Homo sapiens (Human)) (UniProt Q05086); test: 3-step Simoa; capture MS 3E5; UBE3A 0.1 ng/ml
[6] = target: recombinant UBE3A protein (Homo sapiens (Human)) (UniProt Q05086); test: 2-step Simoa; capture MS 3E5; UBE3A 0.1 ng/ml
[7] = target: recombinant UBE3A protein (Homo sapiens (Human)) (UniProt Q05086); test: 3-step Simoa; capture MS 2F6; UBE3A 0.01 ng/ml
[8] = target: recombinant UBE3A protein (Homo sapiens (Human)) (UniProt Q05086); test: 3-step Simoa; capture MS 3E5; UBE3A 0.01 ng/ml
[9] = target: recombinant UBE3A protein (Homo sapiens (Human)) (UniProt Q05086); test: 2-step Simoa; capture MS 3E5; UBE3A 0.01 ng/ml

Sequence of UniProt Q05086 (Q05086 whole entry): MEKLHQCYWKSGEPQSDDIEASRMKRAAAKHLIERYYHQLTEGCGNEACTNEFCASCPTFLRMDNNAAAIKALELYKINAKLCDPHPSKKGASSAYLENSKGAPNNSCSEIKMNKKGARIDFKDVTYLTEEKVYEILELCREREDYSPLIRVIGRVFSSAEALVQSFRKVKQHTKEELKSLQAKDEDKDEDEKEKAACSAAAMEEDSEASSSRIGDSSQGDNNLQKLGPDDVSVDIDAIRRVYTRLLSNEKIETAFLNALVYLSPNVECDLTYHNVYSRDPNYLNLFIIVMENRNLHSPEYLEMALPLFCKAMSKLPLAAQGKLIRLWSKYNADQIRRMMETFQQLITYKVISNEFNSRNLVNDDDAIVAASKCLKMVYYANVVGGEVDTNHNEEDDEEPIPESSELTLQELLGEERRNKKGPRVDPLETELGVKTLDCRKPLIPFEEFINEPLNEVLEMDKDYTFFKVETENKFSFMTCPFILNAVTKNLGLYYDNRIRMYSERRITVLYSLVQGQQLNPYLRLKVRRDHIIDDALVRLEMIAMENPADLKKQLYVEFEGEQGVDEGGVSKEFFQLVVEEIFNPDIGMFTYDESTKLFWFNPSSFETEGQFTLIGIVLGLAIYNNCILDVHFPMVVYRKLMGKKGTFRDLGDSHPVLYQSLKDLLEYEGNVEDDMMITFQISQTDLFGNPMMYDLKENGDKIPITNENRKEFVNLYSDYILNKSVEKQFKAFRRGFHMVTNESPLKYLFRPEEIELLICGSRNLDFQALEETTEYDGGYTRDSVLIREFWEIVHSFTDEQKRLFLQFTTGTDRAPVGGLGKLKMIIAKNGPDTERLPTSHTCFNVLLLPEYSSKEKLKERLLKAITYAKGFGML

## GTX101092 (GeneTex) (antibody)
[1]
  AEB1: 0.0525
  AEB2: 0.0487
  Ave AEB: 0.0506
  Signal to Background: 1
[2]
  AEB1: 0.0655
  AEB2: 0.0625
  Ave AEB: 0.064
  Signal to Background: 1.19
[3]
  AEB1: 0.151
  AEB2: 0.145
  Ave AEB: 0.148
  Signal to Background: 2.77
[4]
  AEB1: 0.407
  AEB2: 0.385
  Ave AEB: 0.396
  Signal to Background: 2.8
[5]
  AEB1: 0.0546
  AEB2: 0.06
  Ave AEB: 0.0573
  Signal to Background: 1.07
[6]
  AEB1: 0.161
  AEB2: 0.149
  Ave AEB: 0.155
  Signal to Background: 1.1
[7]
  AEB1: 0.0162
  AEB2: 0.0191
  Ave AEB: 0.0176
  Signal to Background: 0.94
[8]
  AEB1: 0.0515
  AEB2: 0.05
  Ave AEB: 0.0508
  Signal to Background: 0.946
[9]
  AEB1: 0.129
  AEB2: 0.134
  Ave AEB: 0.132
  Signal to Background: 0.931
